Drawing on paper PMC6973309, this text covers IC50, Chemotaxis IC50 (blocks m3 with m1) and Ligand Internalization IC50 (blocks m3 with m1) for 2 substances.

Like-named read-outs stand apart in the source and are kept apart here.

In experiment [1] the target is human CX3CR1 (human) (UniProt P49238). The experiment in a line: flow cytometry on cells. (In flow cytometry, cells or beads pass a laser one at a time.)
Experiment [2] has the same target.
Experiment [3] has the same target. The experiment can be described thus: flow cytometry on cells. This is another data set of the same source.

Chain of human CX3CR1 (human) (P49238 whole entry): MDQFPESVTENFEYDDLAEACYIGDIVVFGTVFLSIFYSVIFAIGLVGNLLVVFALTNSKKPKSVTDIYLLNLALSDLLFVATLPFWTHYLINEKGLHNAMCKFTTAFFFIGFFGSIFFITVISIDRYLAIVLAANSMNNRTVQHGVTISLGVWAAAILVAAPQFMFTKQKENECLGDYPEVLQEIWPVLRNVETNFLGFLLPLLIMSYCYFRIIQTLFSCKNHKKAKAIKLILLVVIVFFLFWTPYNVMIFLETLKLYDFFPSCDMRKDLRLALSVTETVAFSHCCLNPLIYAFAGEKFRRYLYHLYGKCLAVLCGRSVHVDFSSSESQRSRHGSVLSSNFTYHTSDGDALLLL

As usually defined, the IC50 is the midpoint of a concentration-inhibition curve. The substance BI 655088 (VHH) showed an IC50 in the experiment with human CX3CR1 (human) [1] of 400 pM. Moreover, in the experiment with human CX3CR1 (human) [2], the Chemotaxis IC50 (blocks m3 with m1) is 2700 pM and the Ligand Internalization IC50 (blocks m3 with m1) worked out at 330 pM. Moreover, the concentration for half-maximal inhibition (IC50) with human CX3CR1 (human) [3] was determined as 1600 pM.

As to BI 655089 (Fc fusion), the IC50 with human CX3CR1 (human) [1] was determined as 700 pM. Further, in the experiment with human CX3CR1 (human) [2], the Chemotaxis IC50 (blocks m3 with m1) was found to be 3000 pM and the Ligand Internalization IC50 (blocks m3 with m1) amounted to 370 pM.
